{
  "source": "patent US20220119490A1",
  "about": "(Genentech, published 2022)",
  "binders": {"B1": {"name": "CNTN1 extracellular domain (receptor, human, UniProt Q12860 21-993, looked up)", "chain": "EFTWYRRYGHGVSEEDKGFGPIFEEQPINTIYPEESLEGKVSLNCRARASPFPVYKWRMNNGDVDLTSDRYSMVGGNLVINNPDKQKDAGIYYCLASNNYGMVRSTEATLSFGYLDPFPPEERPEVRVKEGKGMVLLCDPPYHFPDDLSYRWLLNEFPVFITMDKRRFVSQTNGNLYIANVEASDKGNYSCFVSSPSITKSVFSKFIPLIPIPERTTKPYPADIVVQFKDVYALMGQNVTLECFALGNPVPDIRWRKVLEPMPSTAEISTSGAVLKIFNIQLEDEGIYECEAENIRGKDKHQARIYVQAFPEWVEHINDTEVDIGSDLYWPCVATGKPIPTIRWLKNGYAYHKGELRLYDVTFENAGMYQCIAENTYGAIYANAELKILALAPTFEMNPMKKKILAAKGGRVIIECKPKAAPKPKFSWSKGTEWLVNSSRILIWEDGSLEINNITRNDGGIYTCFAENNRGKANSTGTLVITDPTRIILAPINADITVGENATMQCAASFDPALDLTFVWSFNGYVIDFNKENIHYQRNFMLDSNGELLIRNAQLKHAGRYTCTAQTIVDNSSASADLVVRGPPGPPGGLRIEDIRATSVALTWSRGSDNHSPISKYTIQTKTILSDDWKDAKTDPPIIEGNMEAARAVDLIPWMEYEFRVVATNTLGRGEPSIPSNRIKTDGAAPNVAPSDVGGGGGRNRELTITWAPLSREYHYGNNFGYIVAFKPFDGEEWKKVTVTNPDTGRYVHKDETMSPSTAFQVKVKAFNNKGDGPYSLVAVINSAQDAPSEAPTEVGVKVLSSSEISVHWEHVLEKIVESYQIRYWAAHDKEEAANRVQVTSQEYSARLENLLPDTQYFIEVGACNSAGCGPPSDMIEAFTKKAPPSQPPRIISSVRSGSRYIITWDHVVALSNESTVTGYKVLYRPDGQHDGKLYSTHKHSIEVPIPRDGEYVVEVRAHSDGGDGVVSQVKIS", "notes": "extracellular domain; Streptavidin tetramer in cell assays; ECD-Fc in SPR; also called contactin 1"}, "B2": {"name": "LRRC4B extracellular domain (receptor, human, UniProt Q9NT99 36-576, looked up)", "chain": "AGGGGVAVTSAAGGGSPPATSCPVACSCSNQASRVICTRRDLAEVPASIPVNTRYLNLQENGIQVIRTDTFKHLRHLEILQLSKNLVRKIEVGAFNGLPSLNTLELFDNRLTTVPTQAFEYLSKLRELWLRNNPIESIPSYAFNRVPSLRRLDLGELKRLEYISEAAFEGLVNLRYLNLGMCNLKDIPNLTALVRLEELELSGNRLDLIRPGSFQGLTSLRKLWLMHAQVATIERNAFDDLKSLEELNLSHNNLMSLPHDLFTPLHRLERVHLNHNPWHCNCDVLWLSWWLKETVPSNTTCCARCHAPAGLKGRYIGELDQSHFTCYAPVIVEPPTDLNVTEGMAAELKCRTGTSMTSVNWLTPNGTLMTHGSYRVRISVLHDGTLNFTNVTVQDTGQYTCMVTNSAGNTTASATLNVSAVDPVAAGGTGSGGGGPGGSGGVGGGSGGYTYFTTVTVETLETQPGEEALQPRGTEKEPPGPTTDGVWGGGRPGDAAGPASSSTTAPAPRSSRPTEKAFTVPITDVTENALKDLDDVMKTTK", "notes": "extracellular domain; ECD-Fc prey; also called NGL-3; netrin-G ligand-3"}},
  "key": {"[1]": {"biological_target": "T1, PTPRZ1 expressed on cells (human, UniProt P23471 25-2315)", "T1 construct": "whole, on cells", "T1 sequence (P23471 25-2315)": "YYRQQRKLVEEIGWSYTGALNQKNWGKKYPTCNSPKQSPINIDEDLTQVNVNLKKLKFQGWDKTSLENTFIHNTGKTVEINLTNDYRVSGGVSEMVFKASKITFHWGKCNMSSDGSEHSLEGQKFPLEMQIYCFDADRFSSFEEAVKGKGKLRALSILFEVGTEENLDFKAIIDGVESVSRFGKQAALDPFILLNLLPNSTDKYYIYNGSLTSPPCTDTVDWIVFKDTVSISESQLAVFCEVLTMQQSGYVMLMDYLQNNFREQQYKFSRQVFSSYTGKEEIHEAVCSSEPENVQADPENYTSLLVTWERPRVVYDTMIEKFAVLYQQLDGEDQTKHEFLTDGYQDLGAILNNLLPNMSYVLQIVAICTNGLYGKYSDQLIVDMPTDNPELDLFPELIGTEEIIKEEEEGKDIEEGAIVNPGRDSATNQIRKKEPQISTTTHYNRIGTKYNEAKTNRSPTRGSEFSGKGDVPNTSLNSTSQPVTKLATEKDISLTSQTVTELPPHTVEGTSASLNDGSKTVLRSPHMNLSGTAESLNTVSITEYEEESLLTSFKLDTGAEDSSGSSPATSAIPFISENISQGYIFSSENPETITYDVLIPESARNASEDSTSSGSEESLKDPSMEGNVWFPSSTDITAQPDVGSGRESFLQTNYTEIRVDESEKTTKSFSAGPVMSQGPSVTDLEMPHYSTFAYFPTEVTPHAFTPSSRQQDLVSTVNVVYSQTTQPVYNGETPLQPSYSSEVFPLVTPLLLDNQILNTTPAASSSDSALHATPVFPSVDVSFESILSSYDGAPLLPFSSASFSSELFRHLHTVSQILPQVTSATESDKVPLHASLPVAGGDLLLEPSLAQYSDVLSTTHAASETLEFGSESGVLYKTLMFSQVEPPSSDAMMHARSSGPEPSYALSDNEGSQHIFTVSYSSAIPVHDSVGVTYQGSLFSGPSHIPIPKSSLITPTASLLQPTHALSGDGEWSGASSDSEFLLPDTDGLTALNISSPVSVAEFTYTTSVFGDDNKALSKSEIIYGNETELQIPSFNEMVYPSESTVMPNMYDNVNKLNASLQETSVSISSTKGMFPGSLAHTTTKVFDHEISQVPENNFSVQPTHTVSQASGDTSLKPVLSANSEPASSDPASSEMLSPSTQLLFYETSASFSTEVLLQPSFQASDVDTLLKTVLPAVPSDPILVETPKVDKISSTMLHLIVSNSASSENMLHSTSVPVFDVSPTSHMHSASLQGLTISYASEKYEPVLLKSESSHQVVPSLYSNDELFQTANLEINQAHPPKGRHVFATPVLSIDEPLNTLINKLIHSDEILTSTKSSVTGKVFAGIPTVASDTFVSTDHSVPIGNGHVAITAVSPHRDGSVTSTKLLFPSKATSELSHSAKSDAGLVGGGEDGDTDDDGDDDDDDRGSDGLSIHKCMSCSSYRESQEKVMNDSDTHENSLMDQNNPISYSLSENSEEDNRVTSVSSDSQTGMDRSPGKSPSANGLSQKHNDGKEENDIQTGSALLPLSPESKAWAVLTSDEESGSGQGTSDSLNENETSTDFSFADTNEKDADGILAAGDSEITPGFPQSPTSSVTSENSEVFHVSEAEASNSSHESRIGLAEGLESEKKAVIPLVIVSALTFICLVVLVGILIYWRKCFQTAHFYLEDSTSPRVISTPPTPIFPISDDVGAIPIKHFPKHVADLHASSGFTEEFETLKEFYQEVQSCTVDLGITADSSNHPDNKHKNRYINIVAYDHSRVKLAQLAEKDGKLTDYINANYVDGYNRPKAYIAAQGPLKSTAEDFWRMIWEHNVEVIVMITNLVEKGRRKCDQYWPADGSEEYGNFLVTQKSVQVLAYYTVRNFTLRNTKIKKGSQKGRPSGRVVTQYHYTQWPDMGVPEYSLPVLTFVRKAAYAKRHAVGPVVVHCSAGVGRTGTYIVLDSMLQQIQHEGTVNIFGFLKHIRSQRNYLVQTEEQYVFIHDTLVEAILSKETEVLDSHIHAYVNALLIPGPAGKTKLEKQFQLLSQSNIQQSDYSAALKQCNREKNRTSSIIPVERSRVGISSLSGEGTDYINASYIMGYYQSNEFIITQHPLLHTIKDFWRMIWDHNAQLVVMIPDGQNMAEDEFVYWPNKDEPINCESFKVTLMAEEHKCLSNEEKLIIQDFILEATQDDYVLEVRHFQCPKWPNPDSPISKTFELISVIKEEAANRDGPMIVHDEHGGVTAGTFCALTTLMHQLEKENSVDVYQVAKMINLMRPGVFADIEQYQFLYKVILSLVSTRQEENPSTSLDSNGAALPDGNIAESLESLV", "test": "cell surface interaction assay: streptavidin-tetramerized biotinylated ECD on transfected cells, immunofluorescence", "excerpt": "FIG. 3H is a schematic showing the design of the cell surface interaction assay."}, "[2]": {"biological_target": "T2, PTPRD ΔG61 ΔE106 variant extracellular domain (human, UniProt P23468 21-1265)", "T2 construct": "extracellular domain; meaning of the deletion notation not explained; also called IG1 mutant", "T2 sequence (looked up)": "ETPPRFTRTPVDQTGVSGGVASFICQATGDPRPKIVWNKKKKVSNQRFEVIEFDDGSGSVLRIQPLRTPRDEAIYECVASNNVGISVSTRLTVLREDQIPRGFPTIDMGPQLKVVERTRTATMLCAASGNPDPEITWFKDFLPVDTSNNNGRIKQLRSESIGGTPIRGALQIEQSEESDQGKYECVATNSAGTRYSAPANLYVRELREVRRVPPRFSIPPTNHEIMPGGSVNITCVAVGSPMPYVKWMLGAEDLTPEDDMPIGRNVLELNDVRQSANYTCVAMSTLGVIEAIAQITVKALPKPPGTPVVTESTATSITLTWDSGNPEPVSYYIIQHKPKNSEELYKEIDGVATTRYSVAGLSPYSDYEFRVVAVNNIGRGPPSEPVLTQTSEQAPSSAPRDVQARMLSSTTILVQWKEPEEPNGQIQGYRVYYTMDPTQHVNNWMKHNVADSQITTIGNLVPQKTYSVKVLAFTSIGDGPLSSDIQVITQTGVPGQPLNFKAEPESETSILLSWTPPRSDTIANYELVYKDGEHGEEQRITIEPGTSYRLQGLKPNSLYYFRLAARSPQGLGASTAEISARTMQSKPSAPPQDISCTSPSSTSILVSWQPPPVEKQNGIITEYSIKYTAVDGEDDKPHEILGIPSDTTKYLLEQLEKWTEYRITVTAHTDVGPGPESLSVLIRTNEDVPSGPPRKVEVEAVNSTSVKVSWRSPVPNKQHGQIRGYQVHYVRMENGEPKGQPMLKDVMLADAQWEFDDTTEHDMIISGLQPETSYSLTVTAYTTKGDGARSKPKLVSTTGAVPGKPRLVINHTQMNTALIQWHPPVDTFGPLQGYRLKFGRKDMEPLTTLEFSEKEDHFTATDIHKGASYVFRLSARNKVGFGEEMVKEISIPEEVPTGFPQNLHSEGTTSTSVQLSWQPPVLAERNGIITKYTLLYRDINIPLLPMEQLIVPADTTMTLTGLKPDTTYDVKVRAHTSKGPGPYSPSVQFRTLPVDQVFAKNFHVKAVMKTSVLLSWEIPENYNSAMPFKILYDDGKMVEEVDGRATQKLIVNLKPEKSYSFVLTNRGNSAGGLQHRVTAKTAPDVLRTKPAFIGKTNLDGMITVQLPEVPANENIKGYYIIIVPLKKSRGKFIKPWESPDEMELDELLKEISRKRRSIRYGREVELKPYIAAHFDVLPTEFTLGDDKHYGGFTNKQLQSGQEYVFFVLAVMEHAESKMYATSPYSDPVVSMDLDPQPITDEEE", "test": "extracellular interaction screen: pentameric PTPRD variant ECD on ECD-Fc prey (FIG. 5L)"}, "[3]": {"biological_target": "T3, PTPRD S431L variant extracellular domain (human, UniProt P23468 21-1265)", "T3 construct": "extracellular domain; also called FN2 mutant", "T3 sequence (looked up)": "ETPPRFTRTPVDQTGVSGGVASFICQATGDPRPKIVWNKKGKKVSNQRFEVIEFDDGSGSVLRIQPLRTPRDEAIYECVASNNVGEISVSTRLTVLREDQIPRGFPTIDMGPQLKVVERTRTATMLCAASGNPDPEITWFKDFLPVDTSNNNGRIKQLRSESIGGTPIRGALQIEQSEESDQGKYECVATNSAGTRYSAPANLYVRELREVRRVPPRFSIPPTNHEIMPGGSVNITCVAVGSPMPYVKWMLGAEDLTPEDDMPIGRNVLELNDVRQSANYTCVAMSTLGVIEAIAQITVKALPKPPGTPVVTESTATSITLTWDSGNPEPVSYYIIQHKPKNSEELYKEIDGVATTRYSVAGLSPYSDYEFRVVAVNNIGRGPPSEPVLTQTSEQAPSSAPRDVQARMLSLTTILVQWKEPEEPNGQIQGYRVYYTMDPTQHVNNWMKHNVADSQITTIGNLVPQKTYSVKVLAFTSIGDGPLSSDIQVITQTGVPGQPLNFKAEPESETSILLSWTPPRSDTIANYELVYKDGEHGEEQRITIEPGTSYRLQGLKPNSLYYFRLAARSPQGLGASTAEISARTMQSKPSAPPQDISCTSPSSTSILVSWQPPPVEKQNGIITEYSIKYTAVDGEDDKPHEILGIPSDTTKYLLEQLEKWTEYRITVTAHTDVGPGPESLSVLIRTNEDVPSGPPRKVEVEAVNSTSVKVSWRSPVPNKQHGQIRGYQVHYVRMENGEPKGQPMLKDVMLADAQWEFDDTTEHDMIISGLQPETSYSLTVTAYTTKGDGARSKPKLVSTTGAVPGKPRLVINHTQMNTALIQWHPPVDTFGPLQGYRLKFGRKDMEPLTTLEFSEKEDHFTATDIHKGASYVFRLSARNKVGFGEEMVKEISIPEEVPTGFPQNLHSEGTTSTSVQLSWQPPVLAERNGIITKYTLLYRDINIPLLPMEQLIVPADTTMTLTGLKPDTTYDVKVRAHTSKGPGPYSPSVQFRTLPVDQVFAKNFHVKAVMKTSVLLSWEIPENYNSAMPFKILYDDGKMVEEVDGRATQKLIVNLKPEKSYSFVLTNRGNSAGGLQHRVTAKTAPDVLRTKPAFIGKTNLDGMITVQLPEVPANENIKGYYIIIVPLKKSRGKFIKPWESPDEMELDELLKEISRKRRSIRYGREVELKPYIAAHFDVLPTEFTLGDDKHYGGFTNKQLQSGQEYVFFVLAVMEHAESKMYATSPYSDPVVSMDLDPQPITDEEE", "test": "extracellular interaction screen: pentameric PTPRD variant ECD on ECD-Fc prey (FIG. 5L)"}},
  "data": [
    {"binder": "B1", "values": [
      {"measurement": "binding result", "setting": "[1]", "value": "binds"}
    ]},
    {"binder": "B2", "values": [
      {"measurement": "binding result", "setting": "[2]", "value": "no binding"},
      {"measurement": "binding result", "setting": "[3]", "value": "no binding"}
    ]}
  ]
}
